In the supplement of paper PMC12764529:
± gives the half width of the 95% confidence interval.

test: folding stability dG unfold (combined trypsin and chymotrypsin); higher = more stable
How it was run: (§1)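 Sequencing followed digestion of designed mini-proteins with trypsin and chymotrypsin, each at 11 concentrations in threefold dilutions together with a no-protease condition. The mini-proteins were under 80 residues, had no cysteine, sat in a PA-tagged cDNA display construct, and were kept only if AlphaFold2 dimer inter-PAE was above 15. From the counts, Bayesian fitting gave K50, and unfolding free energy was derived against a sequence-predicted unfolded-state K50 and a shared folded-state K50, per protease or combined.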

Row | Sequence | folding stability dG unfold [kcal/mol]
1 | SAGGSAGGGMRIDDIDIKQDPGNPNRYKITIKFDGPPIEFTVPPGEPLPIRFPDGKPLFEIPIDSAGGSAGG [r6_922_TrROS] | 0.479 ± 0.068
2 | SAGGSAEIEIVIVVPEGASEEQVKALAKELKEELEKLLKVKDKDGKEKEVKIKKIKITVIVLPKEESAGGSA [r15_717_TrROS_Hall] | 2.42 ± 0.2
3 | SAGSRVLTLVFEIPGRPEVVENLPEDVVLPDGARLYRDGERLLLVVEREVPSLPVLDADGRPVGPELLSAGG [r19_148_TrMRF] | 0.85 ± 0.039
4 | SEKTVLSSSTSTSPTSITTTTTVKLPDGSLITTTTTYSSVTAAPTPAPGGTLVPTYSLPTTTTTTTLPPASA [r9_240_JUSTAS] | 0.63 ± 0.11
5 | SGVQLEWKYDPEDNKREIKISIFFPADDPEKKKQFAKVIAKEIENMFQEQGWKPKKIDIEVMRMPPGQPLSA [r9_117_TrROS] | 1.02 ± 0.067
6 | SAGVLTIEVQMPADDAEEFAEEVADTIARRLGFPPGFKIKVKVDRFDPDNGYVRVEATIEFPLPPNQPPSAG [r5_537_TrROS] | 2.43 ± 0.099
7 | SAGGGQTIEIKFPVPNENYRVYLMVYDPDKPISVEPQRFDPPDGEVTDKIKLPPDVKIGFMAFPPEDMSAGG [r13_977_TrROS] | 0.823 ± 0.048
8 | SAGGMPVPVTFPFAGADEVIAFATALEELVNAPVGLTLISPSGEEREVGDPDSIVDEDGFTVRVTVPASAGG [r13_620_TrMRF] | 0.921 ± 0.039
9 | SMVKVEIEEENGEKTIRIVNEETGVVVEIKFPEGEEVIEVPSVEELVEELKELGENIEITKIEPLSEEELSA [r9_1102_TrROS_Hall] | 0.661 ± 0.25
10 | SATGKLAELLEEAFPDRPIASAEILGVEPLPDGRPALRFLLTFEDGSKLVVTVTSADHPEVLEAARENQSAG [r14_143_TrMRF] | 2.96 ± 0.041
11 | SAAPGAEVIEEKEIEVGGYTVTIVYNKDTDTVTIFVRNPDGTITEFTIDADTLEITEVREIKLPPGVELSAG [r14_676_TrROS_Hall] | 3 ± 0.12
12 | SAGGSAGGSAGGPRTLTLTVTLTRTYYDEETGEEVETETETLTLTLRLEPPPPLSPEQLSAGGSAGGSAGGS [r10_50_TrROS_Hall] | 2.99 ± 0.17
13 | SAGGSAGGSMNPEVPYAKVTLELKLPDGTTATLTLEVPLEEIPKVIEELKKKGYEILSIKIEPSAGGSAGGS [r12_986_JUSTAS] | 5.07 ± 0.27
14 | SAGGSAGGSAGMKVEEVPETPVWRFTITRGKKTTIVEVEVPPDEPPDPAEVAAELGYELESAGGSAGGSAGG [r11_1053_JUSTAS] | 1.89 ± 0.25
15 | SAGGSAGGGMKFVKVTLEYAGGEVREYLFTTSSSDSTVEVVIEDLPPEKGARITEITEYPASLLSAGGSAGG [r6_530_JUSTAS] | 0.978 ± 0.21
16 | SAGGSAGGSAGGSMIVVPVTSNEVVDNLGGPVTVPAGTVIIIERTENSVKVEVLPPEKLSAGGSAGGSAGGS [r10_353_JUSTAS] | 0.643 ± 0.11
17 | SAGGSAGGSAGGIRIEFPGMKFEIDEFDPPNGVITLRFPENGQELQIKFDSDGEITKITWSAGGSAGGSAGG [r7_553_TrROS] | 2.25 ± 0.28
18 | SAGMVIPYKELKKNLSEEELIELAKEAAEKLGYKPKKIEIKETPEPDKYIVIDVIDENGNKHPIVFPSKSAG [r5_745_TrMRF] | 0.542 ± 0.088
19 | SAGGSAGGSAGALPFKVKVVEVEVDGDEVTVKVVAELPTGTATVELKLGGKLETLTISPVSAGGSAGGSAGG [r17_45_TrMRF] | 2.16 ± 0.24
20 | SAGGSAGGSAGSLELEFEFPKDTPLDKIIEELKKLIPEKDPKIEILKVEEKEGGLWIKARVSSAGGSAGGSA [r18_360_TrMRF] | 3.26 ± 0.05
21 | SAGMKPNETLPNAIIRIENSKGKVKEFTLPNVVSIEEIDEKNGIITLTLPNNKKITLKVPKNAKITIEGSAG [r5_762_TrMRF] | 3.37 ± 0.049

test: folding stability dG unfold from chymotrypsin proteolysis; higher = more stable
How it was run: as §1

Row | Sequence | folding stability dG unfold [kcal/mol]
22 | SAGGSAGGSAGDKPITIFIPGTPDDIKDYIEDEGFKIKDIEIQYHKNKDGKYWVMVTIRVSAGGSAGGSAGG [r11_632_TrROS] | 3.33 ± 0.13
23 | SAGGSAGGSAGGKPTITVTYDKENNTVTITFPDGSKIEITVPENATEEEVKKLVEELAKSAGGSAGGSAGGS [r10_33_TrROS_Hall] | 3.13 ± 0.11
24 | SAGGSAGGSAGGKMLLIKITTKDGREFTLEISEEEAKKLAEELKKKFPNQKIEVEIVPLKSAGGSAGGSAGG [r7_349_TrROS_Hall] | 3.16 ± 0.073
25 | SAGGSAGGSAGMPEKVTLTFERSSEVFDPKLGKWRTLPSTEVVEFDSEEEAEELKEKLGLSAGGSAGGSAGG [r11_984_JUSTAS] | 0.575 ± 0.36
26 | SADMVMFPMTGEFHFPGWRIKVEITLMFHFTPNGKFGPNFHPMIKIEIVPPPPPPKITEEEADKANENGSAG [r14_442_TrROS] | 4.13 ± 0.19
27 | SMVTVEEYEEDDEYYVKVYDPEKGVGVVFKTKDGVFKMPVTDPEALKEAIKASGIDVEIVEVRPLGPGLVSA [r9_1102_JUSTAS] | 0.581 ± 0.1
28 | SAGGIRIRDEDGKPRAEYTIYHPDHGMPIEINVYRNKDGNPYIQVEMTGPNGRPKKFTMPADDLNDLSAGGS [r8_24_TrROS] | 0.559 ± 0.13
29 | SAGGVEREPTEEDLLVATAEFLIEVRDPDSDYPLVEPVPITLPFTSLEDLLEELRRLKAEVEEALASSAGGS [r16_624_TrMRF] | 1.63 ± 0.073
30 | SAGGWWIITIEFPNPEQIKKILEEAGWKVDIERRPNGSVTIFFPPDDVDKIKKAFPGFEINIHPIPPNSAGG [r13_261_TrROS] | 4.45 ± 0.093
31 | SAGGSAWMTLEEFIKEAAKNFPPGREKEIWIRHPGYVFKIDIRVTGPGQVKIKIDKIVPFPDGEPISAGGSA [r15_150_TrROS] | 2.88 ± 0.046
32 | SAGSIPELIREAFPSKVDRVEVTTEKLPNGTTKTTIKVYVDDPEVAERLAKEINELSGEPLENLTVTEESAG [r5_542_JUSTAS] | 0.981 ± 0.039
33 | SAGGSAGGSAGGPENDWREVDIKIKFENPEGKPIFDIKIYYMPDGDIMIYFPNGNWIWISAGGSAGGSAGGS [r10_972_TrROS] | 4.14 ± 0.065
34 | SAGGSAGGSKTVTLTLTLPGKKITFTLTEDGTVRMTVYNEKTGEKVKEITVPAKNLEELLKALSAGGSAGGS [r20_129_TrROS_Hall] | 4.63 ± 0.064
35 | SAGKIKIEKENGEVKIEIEVPEEEIEKLKKLLEELKKKGFEVEKVEVKVEKKEDGTVKVTIKVKIKPKPSAG [r5_739_TrROS_Hall] | 3.42 ± 0.41
36 | SASLTLTITLPDGAKITSITVEEVDGELVLTEITVETTNENGEKTTVTRTIVLKLPPAPPAHPDDPALKSAG [r14_95_TrROS_Hall] | 2.63 ± 0.12
37 | SAGGSAGGSAGMKPDDTVTYTITVPHPESGEPLAEIELTYPVGTPIEKVKEEAKILAEKISAGGSAGGSAGG [r11_516_TrMRF] | 0.141 ± 0.27
38 | MNVTINITVLSPDSSGYTMKATVTFPETPVTTSKEYKTSDPVSAVEEIIKELVDEENLSNATVTTYPSSRLS [r1_399_JUSTAS] | 0.377 ± 0.35
39 | SAGMTTEKSPSGVGRVYLPTRTLELELLPDGTVVLRFPDGTEVVHPLSPEEAAAVRAELRARGLVVRPLSAG [r5_753_JUSTAS] | 1.81 ± 0.092
40 | SAGGFGIKIDEFDPDGEFRISIYDPDTWQPIAEFRIKIKPVPPPPPVEKRPYKDDDGEPKTVTHPDDQSAGG [r13_9_TrROS] | 1.73 ± 0.19
41 | SAGGKKLLIKVRIEVFNENGELVREEEIEIEVEGMSEEELEELARELLAKLPPENVKIEVEIVELEESAGGS [r16_774_TrROS_Hall] | 4.31 ± 0.37
42 | SKMYLVKIKIEVYKDGKLVKEEEIEIEVSEEEAKKLAEKLKEELPGYKVKIEIEVREIEPEDEELLKALESA [r9_782_TrROS_Hall] | 4.12 ± 0.054

Row | Sequence | folding stability dG unfold [kcal/mol]
43 | SAGGSAGGGMRIDDIDIKQDPGNPNRYKITIKFDGPPIEFTVPPGEPLPIRFPDGKPLFEIPIDSAGGSAGG [r6_922_TrROS] | 0.486 ± 0.16
44 | SAGGSAEIEIVIVVPEGASEEQVKALAKELKEELEKLLKVKDKDGKEKEVKIKKIKITVIVLPKEESAGGSA [r15_717_TrROS_Hall] | 2.56 ± 0.064
45 | SAGSRVLTLVFEIPGRPEVVENLPEDVVLPDGARLYRDGERLLLVVEREVPSLPVLDADGRPVGPELLSAGG [r19_148_TrMRF] | 1.11 ± 0.056
46 | SEKTVLSSSTSTSPTSITTTTTVKLPDGSLITTTTTYSSVTAAPTPAPGGTLVPTYSLPTTTTTTTLPPASA [r9_240_JUSTAS] | 0.309 ± 0.13
47 | SGVQLEWKYDPEDNKREIKISIFFPADDPEKKKQFAKVIAKEIENMFQEQGWKPKKIDIEVMRMPPGQPLSA [r9_117_TrROS] | 1.2 ± 0.063
48 | SAGVLTIEVQMPADDAEEFAEEVADTIARRLGFPPGFKIKVKVDRFDPDNGYVRVEATIEFPLPPNQPPSAG [r5_537_TrROS] | 2.19 ± 0.059
49 | SAGGGQTIEIKFPVPNENYRVYLMVYDPDKPISVEPQRFDPPDGEVTDKIKLPPDVKIGFMAFPPEDMSAGG [r13_977_TrROS] | 0.966 ± 0.13
50 | SAGGMPVPVTFPFAGADEVIAFATALEELVNAPVGLTLISPSGEEREVGDPDSIVDEDGFTVRVTVPASAGG [r13_620_TrMRF] | -0.382 ± 0.16
51 | SMVKVEIEEENGEKTIRIVNEETGVVVEIKFPEGEEVIEVPSVEELVEELKELGENIEITKIEPLSEEELSA [r9_1102_TrROS_Hall] | 0.497 ± 0.084
52 | SATGKLAELLEEAFPDRPIASAEILGVEPLPDGRPALRFLLTFEDGSKLVVTVTSADHPEVLEAARENQSAG [r14_143_TrMRF] | 2.913 ± 0.014
53 | SAAPGAEVIEEKEIEVGGYTVTIVYNKDTDTVTIFVRNPDGTITEFTIDADTLEITEVREIKLPPGVELSAG [r14_676_TrROS_Hall] | 3.35 ± 0.06
54 | SAGGSAGGSAGGPRTLTLTVTLTRTYYDEETGEEVETETETLTLTLRLEPPPPLSPEQLSAGGSAGGSAGGS [r10_50_TrROS_Hall] | 3.19 ± 0.07
55 | SAGGSAGGSMNPEVPYAKVTLELKLPDGTTATLTLEVPLEEIPKVIEELKKKGYEILSIKIEPSAGGSAGGS [r12_986_JUSTAS] | 5.02 ± 0.13
56 | SAGGSAGGSAGMKVEEVPETPVWRFTITRGKKTTIVEVEVPPDEPPDPAEVAAELGYELESAGGSAGGSAGG [r11_1053_JUSTAS] | 1.65 ± 0.18
57 | SAGGSAGGGMKFVKVTLEYAGGEVREYLFTTSSSDSTVEVVIEDLPPEKGARITEITEYPASLLSAGGSAGG [r6_530_JUSTAS] | 1.17 ± 0.16
58 | SAGGSAGGSAGGSMIVVPVTSNEVVDNLGGPVTVPAGTVIIIERTENSVKVEVLPPEKLSAGGSAGGSAGGS [r10_353_JUSTAS] | 0.353 ± 0.019
59 | SAGGSAGGSAGGIRIEFPGMKFEIDEFDPPNGVITLRFPENGQELQIKFDSDGEITKITWSAGGSAGGSAGG [r7_553_TrROS] | 1.94 ± 0.14
60 | SAGMVIPYKELKKNLSEEELIELAKEAAEKLGYKPKKIEIKETPEPDKYIVIDVIDENGNKHPIVFPSKSAG [r5_745_TrMRF] | 0.374 ± 0.17
61 | SAGGSAGGSAGALPFKVKVVEVEVDGDEVTVKVVAELPTGTATVELKLGGKLETLTISPVSAGGSAGGSAGG [r17_45_TrMRF] | 2.47 ± 0.13
62 | SAGGSAGGSAGSLELEFEFPKDTPLDKIIEELKKLIPEKDPKIEILKVEEKEGGLWIKARVSSAGGSAGGSA [r18_360_TrMRF] | 3.11 ± 0.042
63 | SAGMKPNETLPNAIIRIENSKGKVKEFTLPNVVSIEEIDEKNGIITLTLPNNKKITLKVPKNAKITIEGSAG [r5_762_TrMRF] | 3.5 ± 0.049
